# Measurements: patent publication US20190330320A1
# B1: 4E4 (antibody, from another filing, V domains shown)
# VH: EVQLVESGGGLVQPGGSLKLSCAASGFNFNISAIHWVRQASGKGLEWVGRIRSKSHNYATLYAASLKGRFTLSRDDSRNTAYLQMSSLQTEDMAVYYCTVLSANYDTFDYWGQGTLVTVSS
# VL: SYELTQPPSVSVSPGQTARISCFGDTLPKQYTYWYQQKPGQAPVLVIYKDTERPSGIPERFSGSSSGTTVTLTISGVQAEDEADYYCLSADNSATWVFGGGTKVTVL
# Molecular target: hyperphosphorylated human tau P301L (4R0N) from rTg4510 mouse brain (64 and 70 kDa species) (human) (UniProt P10636)
# Assay: binding to P301L human mutant tau isolated from 10 month old Tg4510 mice
# hyperphosphorylated human tau P301L (4R0N) from rTg4510 mouse brain (64 and 70 kDa species) (human), sequence (P10636 other isoform, or with tags, fused parts or gaps P301L P301L): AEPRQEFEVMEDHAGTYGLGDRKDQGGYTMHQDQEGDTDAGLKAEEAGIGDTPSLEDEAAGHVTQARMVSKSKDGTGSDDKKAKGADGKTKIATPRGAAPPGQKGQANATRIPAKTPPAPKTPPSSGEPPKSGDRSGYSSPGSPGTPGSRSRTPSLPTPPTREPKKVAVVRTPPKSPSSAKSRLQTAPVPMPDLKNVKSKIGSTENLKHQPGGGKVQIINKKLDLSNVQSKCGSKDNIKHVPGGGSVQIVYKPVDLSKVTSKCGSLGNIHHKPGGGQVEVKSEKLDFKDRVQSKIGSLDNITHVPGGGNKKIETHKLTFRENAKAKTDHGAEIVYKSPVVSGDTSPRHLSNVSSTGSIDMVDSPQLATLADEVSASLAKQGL
binder,measurement,value
B1,TG/wt (binding to P301L tau from Tg4510 mice over wild type),1
